This note sets out measurements from patent US12662541B2, “Antibody-drug conjugates against the receptor tyrosine kinase EphA5” (Rutgers, The State University of New Jersey, priority 2021, dated 2026).

Numbering of substitutions follows the chain as printed.

Sequences and labels used below:
B1: VH2/VK2: humanized anti-EphA5 antibody, VH SEQ ID NO:3, VL SEQ ID NO:10 (antibody, V domains shown)
VH: EVTLVESGGGLVQPGGSLKLSCAASGFTFSTFGIHWVRQAPGKGLEWVAYISGASTTIYYADTVKGRFTISRDNSKNTLYLQMNSLRSEDTAMYYCARYGTSFPYGLDYWGQGTLVTVSS
VL: DIVMTQSPDSLAVSLGERATINCKASQSVDYDGDSYMNWYQQKPGKAPKLLIYGASNLESGIPDRFSGSGSGTDFTLTISRLEPEDAASYYCQQSNEDPFTFGQGTKLEIK
B2: VH1/VK1: humanized anti-EphA5 antibody, VH SEQ ID NO:2, VL SEQ ID NO:9 (antibody, V domains shown)
VH: B1 VH with L18R, L115S
VL: B1 VL with D9G, P84E
B3: VH2/VK4: humanized anti-EphA5 antibody, VH SEQ ID NO:3, VL SEQ ID NO:12 (antibody, V domains shown)
VH: B1 VH
VL: B1 VL with A25S
B4: VH3/VK2: humanized anti-EphA5 antibody, VH SEQ ID NO:4, VL SEQ ID NO:10 (antibody, V domains shown)
VH: B1 VH with T3Q
VL: B1 VL
B5: VH2/VK5: humanized anti-EphA5 antibody, VH SEQ ID NO:3, VL SEQ ID NO:13 (antibody, V domains shown)
VH: B1 VH
VL: B1 VL with A25S, S89V
B6: VH3/VK1: humanized anti-EphA5 antibody, VH SEQ ID NO:4, VL SEQ ID NO:9 (antibody, V domains shown)
VH: B1 VH with T3Q
VL: B1 VL with D9G, P84E
B7: VH5/VK2: humanized anti-EphA5 antibody, VH SEQ ID NO:6, VL SEQ ID NO:10; lead variant (antibody, V domains shown)
VH: B1 VH with T3Q, T63S, S88A, M93V
VL: B1 VL
B8: VH3/VK5: humanized anti-EphA5 antibody, VH SEQ ID NO:4, VL SEQ ID NO:13 (antibody, V domains shown)
VH: B1 VH with T3Q
VL: B1 VL with A25S, S89V
B9: VH3/VK3: humanized anti-EphA5 antibody, VH SEQ ID NO:4, VL SEQ ID NO:11 (antibody, V domains shown)
VH: B1 VH with T3Q
VL: B1 VL with S89V
B10: VH1/VK2: humanized anti-EphA5 antibody, VH SEQ ID NO:2, VL SEQ ID NO:10 (antibody, V domains shown)
VH: B1 VH with L18R, L115S
VL: B1 VL
B11: VH2/VK1: humanized anti-EphA5 antibody, VH SEQ ID NO:3, VL SEQ ID NO:9 (antibody, V domains shown)
VH: B1 VH
VL: B1 VL with D9G, P84E
B12: VH1/VK4: humanized anti-EphA5 antibody, VH SEQ ID NO:2, VL SEQ ID NO:12 (antibody, V domains shown)
VH: B1 VH with L18R, L115S
VL: B1 VL with A25S
B13: VH4/VK4: humanized anti-EphA5 antibody, VH SEQ ID NO:5, VL SEQ ID NO:12; lead variant (antibody, V domains shown)
VH: B1 VH with T3Q, S88A, M93V
VL: B1 VL with A25S
B14: VH1/VK5: humanized anti-EphA5 antibody, VH SEQ ID NO:2, VL SEQ ID NO:13 (antibody, V domains shown)
VH: B1 VH with L18R, L115S
VL: B1 VL with A25S, S89V

The first test deals with T1, rhEphA5 antigen (Homo sapiens, UniProt P54756).
T1 construct: purchased R and D systems 3036-A5
The test can be described thus: ka (1/Ms). The protocol:
(§1) Table printed on a drawing sheet, FIG. 13
(§2) Head of the field: ka (1/Ms)
(§3) The patent's description of the figure: FIG. 13 is a table illustrating the single cycle kinetic parameters of chimeric (VH0/VK0) and humanized 11C12 variants (tested as cell culture supernatants) binding to rhEphA5 antigen as determined using the Biacore T200. The relative KD was calculated by dividing the KD of the humanized variant by that of the VH0/VK0 (top row) assayed in the same experiment. The variants marked with ‘*’ have KD values that are within two-fold of, or are better than, the chimeric antibody. The chimeric and selected variants marked in ‘#’ were identified as the main leads for purification. […]
(§4) Where the first naming reader finds the target: description_of_the_figure: humanized 11C12 variants (tested as cell culture supernatants) binding to rhEphA5 antigen as determined using the Biacore T200
For the molecule B1, the ka worked out at 1.3e+06 M⁻¹ s⁻¹.
The same measure, in the same setting: the figure for B2 is 1.25e-06 M⁻¹ s⁻¹; for B3 it is 1.37e-06 M⁻¹ s⁻¹; for B4 it is 1.34e+06 M⁻¹ s⁻¹.
On the same count and under the same terms, under B5 stands 1.34e+06 M⁻¹ s⁻¹; under B6, 1.39e+06 M⁻¹ s⁻¹.
With B7, the “ka” value stood at 1.38e-06 M⁻¹ s⁻¹.
Molecule B8 showed a ka of 1.29e+06 M⁻¹ s⁻¹.
B9 showed a ka of 1.32e+06 M⁻¹ s⁻¹.
Still for that read-out and setting: under B10 stands 1.31e-06 M⁻¹ s⁻¹; under B11, 1.35e-06 M⁻¹ s⁻¹.

The next test has as its target T1, rhEphA5 antigen. As to the kind of experiment: kd (1/s). Here is the method: as §1
(§5) Head of the field: kd (1/s)
as §3, §4
B1: the “kd” value was determined as 0.00126 s⁻¹.
Take B2: the “kd” value was determined as 0.00128 s⁻¹.
On the same count and under the same terms, under B3 stands 0.00126 s⁻¹.
On the same count and under the same terms, the figure for B4 is 0.0013 s⁻¹; for B12 it is 0.00137 s⁻¹.
For B13, the “kd” value turned out to be 0.0014 s⁻¹.
For the molecule B5, the “kd” value worked out at 0.0014 s⁻¹.
With B6, the “kd” value was found to be 0.00123 s⁻¹.
With B14, the “kd” value was 0.00139 s⁻¹.
Take B7: the “kd” value was determined as 0.00123 s⁻¹.
On to B8, for which the “kd” value was found to be 0.00143 s⁻¹.
Same read-out and setting: the figure for B9 is 0.00133 s⁻¹.
B10: the “kd” value was 0.00126 s⁻¹.
As to B11, the “kd” value stood at 0.0012 s⁻¹.

The target in a further test is T1, rhEphA5 antigen. The test can be described thus: KD (M). The protocol:
as §1
Head of the field: KD (M)
as §3, §4
Turning to B1, the Kd (usually the free concentration of one partner at which half of the binding sites on the other are occupied at equilibrium, for simple one-to-one binding) came out at 0.971 nM.
B2: the Kd turned out to be 1.02 nM.
B3 returned a Kd of 0.917 nM.
The molecule B4 returned a Kd of 0.968 nM.
In turn, B12 registered a Kd of 1.1 nM.
For the molecule B5, the Kd amounted to 1.05 nM.
For B6, the affinity, expressed as Kd, was 0.884 nM.
B14 had a Kd of 1.12 nM.
In turn, B8 had a Kd of 1.1 nM.
B9 came in with a Kd of 1.01 nM.
With B10, binding was put at a Kd of 0.968 nM.
In the case of B11, the Kd amounted to 0.89 nM.

A further test has as its target T2, EphA5 antigen (Homo sapiens, UniProt P54756).
T2 construct: purchased R and D systems 3036-A5
As to the kind of experiment: ka (1/Ms). The protocol:
(§6) Table printed on a drawing sheet, FIG. 19
as §2
(§7) The patent's description of the figure: FIG. 19 is a table illustrating the Multi-cycle kinetic parameters of chimeric (VH0/VK0) and humanized variants (tested as purified proteins) binding to EphA5 antigen as determined using the Biacore T200. The relative KD was calculated by dividing the KD of the humanized variant by that of the VH0VK0 (first row) assayed in the same experiment. […]
(§8) Where the first naming reader finds the target: description_of_the_figure: humanized variants (tested as purified proteins) binding to EphA5 antigen as determined using the Biacore T200
As to B13, the ka stood at 1.27e+06 M⁻¹ s⁻¹.
As for B7, the ka was found to be 1.34e+06 M⁻¹ s⁻¹.

The target of another test is T2, EphA5 antigen. As to the kind of experiment: kd (1/s). Here is the method: as §6, §5, §7, §8
In the case of B13, the “kd” value turned out to be 0.00132 s⁻¹.
B7: the “kd” value was determined as 0.00125 s⁻¹.
